Results on two molecules are retold here after patent US20110091993A1 (SEKISUI MEDICAL, published 2011).

Experiment [1] concerns the target T1, purified human soluble LR11 (human, UniProt Q92673 82-2137, limits assumed).
T1 construct: Natural shed soluble form from serum (Lot. 061208); Also used for native soluble LR11 measured directly in human serum and cerebrospinal fluid; also called purified human LR11; soluble LR11 in human serum
Briefly: sandwich ELISA, immobilized mouse IgG, liquid-phase biotinylated mouse IgG. (In an ELISA, binding on a coated surface is turned into a signal by an enzyme label.)

In experiment [2] the target is T2, purified rabbit soluble LR11 (rabbit, UniProt Q95209 82-2136, limits assumed).
T2 construct: also called purified rabbit LR11; soluble LR11 in rabbit serum
T2 sequence (Q95209 82-2136 limits assumed): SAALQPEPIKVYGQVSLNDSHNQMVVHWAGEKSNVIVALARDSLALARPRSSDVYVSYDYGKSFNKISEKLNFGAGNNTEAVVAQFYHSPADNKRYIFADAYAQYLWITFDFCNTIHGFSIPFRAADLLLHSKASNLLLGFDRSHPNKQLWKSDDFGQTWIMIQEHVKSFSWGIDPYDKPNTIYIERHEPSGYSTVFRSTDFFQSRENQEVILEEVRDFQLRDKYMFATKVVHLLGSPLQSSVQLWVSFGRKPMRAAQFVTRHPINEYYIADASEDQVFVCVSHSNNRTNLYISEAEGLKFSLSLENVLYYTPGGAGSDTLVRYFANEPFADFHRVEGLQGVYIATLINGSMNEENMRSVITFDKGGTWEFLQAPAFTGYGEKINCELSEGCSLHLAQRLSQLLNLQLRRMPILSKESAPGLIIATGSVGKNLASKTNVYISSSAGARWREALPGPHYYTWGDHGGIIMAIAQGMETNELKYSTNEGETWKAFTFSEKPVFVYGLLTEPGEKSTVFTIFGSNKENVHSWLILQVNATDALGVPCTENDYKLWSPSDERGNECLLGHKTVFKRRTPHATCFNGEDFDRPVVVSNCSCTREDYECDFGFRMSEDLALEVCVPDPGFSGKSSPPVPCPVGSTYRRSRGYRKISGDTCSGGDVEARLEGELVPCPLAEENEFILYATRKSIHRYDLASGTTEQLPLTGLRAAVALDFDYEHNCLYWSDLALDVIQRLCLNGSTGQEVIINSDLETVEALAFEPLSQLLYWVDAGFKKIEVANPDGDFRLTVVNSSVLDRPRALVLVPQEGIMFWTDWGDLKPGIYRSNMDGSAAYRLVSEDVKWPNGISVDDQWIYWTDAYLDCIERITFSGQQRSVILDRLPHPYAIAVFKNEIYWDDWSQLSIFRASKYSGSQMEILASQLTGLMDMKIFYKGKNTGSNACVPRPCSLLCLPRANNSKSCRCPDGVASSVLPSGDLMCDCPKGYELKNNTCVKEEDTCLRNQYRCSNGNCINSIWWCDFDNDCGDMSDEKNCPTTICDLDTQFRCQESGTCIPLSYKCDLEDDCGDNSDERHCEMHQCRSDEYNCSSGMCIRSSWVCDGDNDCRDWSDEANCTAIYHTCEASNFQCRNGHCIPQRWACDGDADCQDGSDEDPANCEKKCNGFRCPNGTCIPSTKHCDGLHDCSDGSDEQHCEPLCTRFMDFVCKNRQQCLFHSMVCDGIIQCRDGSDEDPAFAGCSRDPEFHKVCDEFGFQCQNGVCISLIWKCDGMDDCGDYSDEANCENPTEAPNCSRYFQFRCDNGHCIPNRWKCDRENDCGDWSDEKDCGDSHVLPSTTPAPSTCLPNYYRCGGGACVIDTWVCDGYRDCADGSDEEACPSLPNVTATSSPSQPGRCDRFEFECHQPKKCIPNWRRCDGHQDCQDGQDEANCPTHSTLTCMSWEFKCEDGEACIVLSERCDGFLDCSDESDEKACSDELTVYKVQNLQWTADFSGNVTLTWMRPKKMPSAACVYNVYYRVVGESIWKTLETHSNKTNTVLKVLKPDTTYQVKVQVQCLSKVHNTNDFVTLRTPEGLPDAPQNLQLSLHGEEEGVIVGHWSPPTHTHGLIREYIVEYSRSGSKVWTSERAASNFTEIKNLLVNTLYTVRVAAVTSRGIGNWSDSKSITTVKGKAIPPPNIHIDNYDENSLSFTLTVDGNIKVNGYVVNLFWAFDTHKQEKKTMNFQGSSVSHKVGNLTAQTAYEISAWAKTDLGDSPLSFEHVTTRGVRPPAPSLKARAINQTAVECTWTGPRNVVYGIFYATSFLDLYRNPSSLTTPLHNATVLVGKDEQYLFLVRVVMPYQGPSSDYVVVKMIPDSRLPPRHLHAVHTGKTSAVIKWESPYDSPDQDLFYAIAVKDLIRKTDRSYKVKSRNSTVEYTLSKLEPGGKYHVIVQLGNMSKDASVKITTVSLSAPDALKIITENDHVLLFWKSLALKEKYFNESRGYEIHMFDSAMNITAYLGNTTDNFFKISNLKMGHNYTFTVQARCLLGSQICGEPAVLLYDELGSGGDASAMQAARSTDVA
The description is as above.

The target of experiment [3] is T1, purified human soluble LR11. The experiment is described as follows: sandwich ELISA, immobilized mouse IgG, liquid-phase biotinylated R14.
For experiment [4], the target named is T2, purified rabbit soluble LR11. The experiment is described as above.
Experiment [5] deals with T1, purified human soluble LR11. The experiment is described as follows: sandwich ELISA, immobilized mouse IgG, liquid-phase biotinylated R23.
Experiment [6] addresses T2, purified rabbit soluble LR11. Described as above.
Experiment [7] deals with T1, purified human soluble LR11. Briefly: sandwich ELISA, immobilized mouse IgG, liquid-phase biotinylated M3.
In experiment [8] the target is T2, purified rabbit soluble LR11. The description is as above.
Experiment [9] has as its target T1, purified human soluble LR11. The experiment is described as follows: sandwich ELISA, immobilized mouse IgG, liquid-phase biotinylated A2-2-3.
Experiment [10] deals with T2, purified rabbit soluble LR11. Described as above.
For experiment [11], the target named is T1, purified human soluble LR11. The experiment is described as follows: sandwich ELISA, immobilized mouse IgG, liquid-phase biotinylated M5.
The target in experiment [12] is T2, purified rabbit soluble LR11. Described as above.
Experiment [13] concerns the target T1, purified human soluble LR11. The experiment is described as follows: affinity capture from serum on RAP/GST bound to Glutathione Sepharose.
Experiment [14] deals with T2, purified rabbit soluble LR11. The experiment is described as above.

T1 sequence (Q92673 82-2137 limits assumed): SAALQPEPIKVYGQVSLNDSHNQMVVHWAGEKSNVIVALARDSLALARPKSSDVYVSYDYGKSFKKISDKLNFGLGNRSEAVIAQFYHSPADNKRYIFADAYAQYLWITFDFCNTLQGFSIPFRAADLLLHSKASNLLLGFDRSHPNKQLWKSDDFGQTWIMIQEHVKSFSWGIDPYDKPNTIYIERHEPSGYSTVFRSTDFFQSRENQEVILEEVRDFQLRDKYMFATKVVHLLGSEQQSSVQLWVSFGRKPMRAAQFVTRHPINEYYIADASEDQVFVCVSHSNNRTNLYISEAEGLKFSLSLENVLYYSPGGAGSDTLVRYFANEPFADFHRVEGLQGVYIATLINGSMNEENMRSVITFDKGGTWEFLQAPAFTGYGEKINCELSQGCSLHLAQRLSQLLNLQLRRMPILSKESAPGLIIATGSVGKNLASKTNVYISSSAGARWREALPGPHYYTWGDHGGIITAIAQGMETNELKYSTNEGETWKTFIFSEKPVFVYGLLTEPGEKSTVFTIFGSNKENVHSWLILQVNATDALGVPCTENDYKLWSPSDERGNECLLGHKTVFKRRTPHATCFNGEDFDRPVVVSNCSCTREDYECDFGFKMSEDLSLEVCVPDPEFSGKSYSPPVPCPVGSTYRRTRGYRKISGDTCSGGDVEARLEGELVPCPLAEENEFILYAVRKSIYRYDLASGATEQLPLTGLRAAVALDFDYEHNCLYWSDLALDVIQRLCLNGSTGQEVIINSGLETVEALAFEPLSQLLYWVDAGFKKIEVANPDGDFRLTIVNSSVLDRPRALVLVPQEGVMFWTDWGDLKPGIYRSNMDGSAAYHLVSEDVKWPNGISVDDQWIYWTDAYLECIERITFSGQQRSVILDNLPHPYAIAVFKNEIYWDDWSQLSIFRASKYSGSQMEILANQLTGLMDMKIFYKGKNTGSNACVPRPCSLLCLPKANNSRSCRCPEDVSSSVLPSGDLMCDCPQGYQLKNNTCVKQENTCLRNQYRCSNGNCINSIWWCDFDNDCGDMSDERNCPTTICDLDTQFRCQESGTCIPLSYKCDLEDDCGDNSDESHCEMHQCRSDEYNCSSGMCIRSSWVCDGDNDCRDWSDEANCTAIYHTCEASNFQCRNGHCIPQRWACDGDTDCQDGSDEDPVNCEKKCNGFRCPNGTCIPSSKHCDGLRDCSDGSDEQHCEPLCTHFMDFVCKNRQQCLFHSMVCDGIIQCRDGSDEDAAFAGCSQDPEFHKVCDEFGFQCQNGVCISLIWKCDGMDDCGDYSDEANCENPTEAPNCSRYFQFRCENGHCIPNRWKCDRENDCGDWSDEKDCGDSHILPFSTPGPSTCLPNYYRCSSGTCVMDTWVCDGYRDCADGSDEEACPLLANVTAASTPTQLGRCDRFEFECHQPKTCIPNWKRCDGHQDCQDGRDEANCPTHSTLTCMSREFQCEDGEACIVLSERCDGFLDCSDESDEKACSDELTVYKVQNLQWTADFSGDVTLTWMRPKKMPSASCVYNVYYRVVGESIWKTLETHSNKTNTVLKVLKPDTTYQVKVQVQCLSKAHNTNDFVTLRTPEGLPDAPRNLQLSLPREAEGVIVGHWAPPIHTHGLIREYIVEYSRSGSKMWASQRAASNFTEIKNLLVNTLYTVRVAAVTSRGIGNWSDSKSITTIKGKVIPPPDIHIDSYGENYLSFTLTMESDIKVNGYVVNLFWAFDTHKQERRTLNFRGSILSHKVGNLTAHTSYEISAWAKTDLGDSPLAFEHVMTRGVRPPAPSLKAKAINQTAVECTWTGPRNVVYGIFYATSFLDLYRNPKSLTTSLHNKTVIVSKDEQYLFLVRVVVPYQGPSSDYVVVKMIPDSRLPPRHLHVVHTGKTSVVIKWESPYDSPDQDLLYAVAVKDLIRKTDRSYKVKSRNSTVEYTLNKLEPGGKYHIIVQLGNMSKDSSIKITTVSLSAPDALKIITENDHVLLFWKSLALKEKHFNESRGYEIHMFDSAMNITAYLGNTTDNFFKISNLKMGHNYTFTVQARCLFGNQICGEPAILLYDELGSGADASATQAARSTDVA

Consider mouse IgG (negative control) (antibody), for which the Absorbance (492 nm) (Absorbance (492 nm)) in experiment [1] was -0.003; in experiment [2] it was 0.043; in experiment [3], -0.017; in experiment [4] it was -0.019; in experiment [5], -0.02; in [6] it was -0.026. The Absorbance (492 nm) (Absorbance (492 nm)) in [7] was 0.024; in experiment [8], -0.017; in experiment [9], 0.015; in experiment [10], -0.017; in experiment [11] it was 0.007; in [12], -0.017.

B1: RAP/GST fusion protein (other, human, UniProt P30533 35-357, looked up)
chain: YSREKNQPKPSPKRESGEEFRMEKLNQLWEKAQRLHLPPVRLAELHADLKIQERDELAWKKLKLDGLDEDGEKEARLIRNLNVILAKYGLDGKKDARQVTSNSLSGTQEDGLDDPRLEKLWHKAKTSGKFSGEELDKLWREFLHHKEKVHEYNVLLETLSRTEEIHENVISPSDLSDIKGSVLHSRHTELKEKLRSINQGLDRLRRVSHQGYSTEAEFEEPRVIDLWDLAQSANLTDKELEAFREELKHFEAKIEKHNHYQKQLEIAHEKLRHAESVGDGERVSRSREKHALLEGRTKELGYTVKKHLQDLSGRISRARHNEL
notes: Expressed in E. coli DH5alpha and adsorbed on Glutathione Sepharose 4 FF; also called RAP-Sepharose resin; RAP (receptor associated protein); not shown: GST encoded by vector pGEX2T (GE Healthcare Bio Science)
In the case of B1, the binding result in experiment [13] and in experiment [14] was “binds” each time.
